Results on one molecule are retold here after US20210063414A1, “METHODS FOR PREVENTING AND/OR TREATING BONE LOSS CONDITIONS BY MODULATING IRISIN” (Dana-Farber Cancer Institute, Inc., priority 2018, published 2021).

For this assay, the system named is inguinal fat. Kind of assay: Irisin injection in mice: Ucp1/Dio2 mRNA and Ucp1 protein in inguinal fat. Type of assay: in vivo. As to the method: FIG. 18A-FIG. 18B show mRNA and protein levels of indicated genes. 1 mg/kg irisin was injected to 8-week old mice every other day for 6 days. mRNA levels of indicated genes in inguinal fat were analyzed by qRT-PCR. Cyclophilin was used for housekeeping gene (FIG. 18A). Inguinal fats were also lysed to detect the indicated protein level using immunoblot analysis (FIG. 18B). FIGS. 18C and 18D show mRNA and protein levels of indicated genes. Mice were treated and analyzed as (A-B) with addition of coinjection of […] control RGD peptide or cyclo RGDyK (cRGDyK). mRNA levels of indicated genes in inguinal fat were analyzed by qRT-PCR. Cyclophilin was used for house-keeping gene (FIG. 18C). Inguinal fats were also lysed to detect the indicated protein level using immunoblot analysis (FIG. 18D). […] Ucp1 mRNA level was analyzed by qRT-PCR. […]
RNA was extracted from cultured cells or frozen tissues using TRIzol® (Thermo Fischer Scientific) and purified with RNeasy® mini kit (QIAGEN 74106). […] To perform qRT-PCR analysis, normalized RNA was reverse transcribed using a high-capacity cDNA reverse-transcription kit (Applied Biosystems™). cDNA was analyzed by qRT-PCR with indicated primers. Relative mRNA levels were calculated using the comparative CT method and normalized to cyclophilin mRNA. […]

B1: irisin: secreted cleaved form of FNDC5; recombinant human/mouse irisin with C-terminal his tag produced in HEK293 cells (protein)
chain: DSPSAPVNVTVRHLKANSAVVSWDVLEDEVVIGFAISQQKKDVRMLRFIQEVNTTTRSCALWDLEEDTEYIVHVQAISIQGQSPASEPVLFKTPREAEKMASKNKDEVTMKE
modifications: left off: small tags and cut ends
notes: secreted cleaved form of FNDC5; recombinant human/mouse irisin with C-terminal his tag produced in HEK293 cells
For B1, the “Ucp1 protein level in whole tissue (western blot)” value (mice, irisin injections) is listed as “also increased”. Moreover, under “wild-type mice, 1 mg/kg irisin every other day for 6 days”, the “increase of mRNA level of Ucp1” value was “more than 2 fold”.
